From US20160297892A1 (Novo Nordisk, published 2016)

T1: EGF domain 3 and 4 of recombinant human Protein S (human, UniProt P07225 201-286, limits assumed)
T1 construct: domain: EGF domain 3 and 4; also called hEGF3-4
T1 sequence (looked up): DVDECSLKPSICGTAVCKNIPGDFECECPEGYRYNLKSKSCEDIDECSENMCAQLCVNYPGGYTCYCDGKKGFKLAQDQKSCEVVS

T2: human Protein S (plasma derived) (human, UniProt P07225 42-676)
T2 construct: Bought plasma-derived human Protein S (Haematologic Technologies or Enzyme Research Laboratories); also called Plasma PS; free Protein S
T2 sequence: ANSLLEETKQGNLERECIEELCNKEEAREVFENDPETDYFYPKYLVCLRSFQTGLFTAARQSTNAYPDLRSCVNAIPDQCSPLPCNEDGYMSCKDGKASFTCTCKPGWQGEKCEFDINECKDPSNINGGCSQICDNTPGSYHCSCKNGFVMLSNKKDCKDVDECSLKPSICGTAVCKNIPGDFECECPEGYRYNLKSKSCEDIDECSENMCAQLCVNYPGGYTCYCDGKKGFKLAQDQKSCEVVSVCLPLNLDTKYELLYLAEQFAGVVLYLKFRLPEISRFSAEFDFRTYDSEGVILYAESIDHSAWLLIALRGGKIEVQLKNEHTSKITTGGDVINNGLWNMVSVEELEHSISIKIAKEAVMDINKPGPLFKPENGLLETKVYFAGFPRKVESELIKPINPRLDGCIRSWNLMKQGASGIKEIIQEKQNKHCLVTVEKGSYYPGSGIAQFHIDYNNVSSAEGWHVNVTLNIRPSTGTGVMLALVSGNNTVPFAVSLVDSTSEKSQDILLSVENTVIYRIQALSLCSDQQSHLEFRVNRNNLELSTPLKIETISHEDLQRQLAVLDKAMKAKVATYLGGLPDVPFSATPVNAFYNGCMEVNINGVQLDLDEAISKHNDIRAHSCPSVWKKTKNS

T3: Gla-domain deleted recombinant human Protein S (human, UniProt P07225 114-676)
T3 construct: also called hPS-dGla; desGla human Protein S
T3 sequence: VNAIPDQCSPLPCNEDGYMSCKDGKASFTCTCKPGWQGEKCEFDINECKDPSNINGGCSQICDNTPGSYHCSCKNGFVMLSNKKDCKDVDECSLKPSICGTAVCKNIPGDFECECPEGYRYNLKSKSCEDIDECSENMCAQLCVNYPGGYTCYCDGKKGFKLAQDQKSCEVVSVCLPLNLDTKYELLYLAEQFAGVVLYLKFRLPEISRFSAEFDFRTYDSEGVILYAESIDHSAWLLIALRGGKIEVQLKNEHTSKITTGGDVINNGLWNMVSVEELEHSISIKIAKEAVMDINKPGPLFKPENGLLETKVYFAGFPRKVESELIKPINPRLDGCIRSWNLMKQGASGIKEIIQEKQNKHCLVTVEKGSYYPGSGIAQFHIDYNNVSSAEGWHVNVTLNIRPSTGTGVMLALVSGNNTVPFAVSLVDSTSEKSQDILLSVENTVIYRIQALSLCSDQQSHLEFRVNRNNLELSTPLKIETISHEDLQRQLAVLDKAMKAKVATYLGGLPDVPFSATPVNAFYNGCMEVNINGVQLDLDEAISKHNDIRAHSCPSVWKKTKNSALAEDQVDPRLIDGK

T4: EGF1-4 domains of human Protein S with C-terminal HPC4 tag (human, UniProt P07225 114-286, partial hydroxylation of Asn or Asp in the EGF domains (detected by MS))
T4 construct: also called hEGF1-4; human Protein S EGF1-4
T4 sequence: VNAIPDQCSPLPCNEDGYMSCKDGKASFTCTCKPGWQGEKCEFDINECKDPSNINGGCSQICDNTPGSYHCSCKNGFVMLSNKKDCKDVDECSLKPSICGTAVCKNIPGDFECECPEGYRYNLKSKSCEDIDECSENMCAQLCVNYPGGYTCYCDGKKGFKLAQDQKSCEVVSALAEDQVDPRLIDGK

T5: EGF domain 1 and 2 of recombinant human Protein S (human, UniProt P07225 114-200, limits assumed)
T5 construct: domain: EGF domain 1 and 2; also called hEGF1-2
T5 sequence (looked up): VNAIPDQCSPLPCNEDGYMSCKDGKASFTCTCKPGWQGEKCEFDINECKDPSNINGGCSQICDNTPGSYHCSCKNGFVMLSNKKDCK


Assays:
[1] = target: T1, EGF domain 3 and 4 of recombinant human …; test: ELISA, calcium-free TBS;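 note: binding of mouse antibodies detected by ELISA with an HRP-conjugated goat anti-mouse IgG secondary and TMB substrate development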
Experimental: (§1) After incubation and washing a HRP-labelled goat-anti-mouse IgG secondary antibody (Jackson) was added and the ELISA was developed after incubation and wash by addition of 3,3′,5,5′-Tetramethylbenzidine.

[2] = target: T2, human Protein S (plasma derived); test: ELISA, recombinant antibody
[3] = target: T3, Gla-domain deleted recombinant human …; test: ELISA, recombinant antibody
[4] = target: T4, EGF1-4 domains of human Protein S with …; test: ELISA, recombinant antibody
[5] = target: T2, human Protein S (plasma derived); test: ELISA, calcium-free TBS;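 note: binding of mouse antibodies detected by ELISA with an HRP-conjugated goat anti-mouse IgG secondary and TMB substrate development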
Experimental: as §1

[6] = target: T3, Gla-domain deleted recombinant human …; test: ELISA, calcium-free TBS;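 note: binding of mouse antibodies detected by ELISA with an HRP-conjugated goat anti-mouse IgG secondary and TMB substrate development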
Experimental: as §1

[7] = target: T4, EGF1-4 domains of human Protein S with …; test: ELISA, calcium-free TBS;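 note: binding of mouse antibodies detected by ELISA with an HRP-conjugated goat anti-mouse IgG secondary and TMB substrate development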
Experimental: as §1

[8] = target: T1, EGF domain 3 and 4 of recombinant human …; test: ELISA, recombinant antibody
[9] = target: T4, EGF1-4 domains of human Protein S with …; test: HX-MS, 4 uM EGF1-4 with 2.4 uM mAb
Experimental: The HX experiments were performed on a nanoACQUITY UPLC System with HDX Technology (Waters Inc.) coupled to a Synapt G2 mass spectrometer (Waters Inc.). The Waters HDX system contained a Leap robot (H/D-x PAL; Waters Inc.) operated by the LeapShell software (Leap Technologies Inc/Waters Inc.), which performed initiation of the deuterium exchange reaction, reaction time control, quench reaction, injection onto the UPLC system and digestion time control. The Leap robot was equipped with two temperature controlled stacks maintained at 20° C. for buffer storage and HX reactions and maintained at 2° C. for storage of protein and quench solution, respectively. The Waters HDX system furthermore contained a temperature controlled chamber holding the pre- and analytical columns, and the LC tubing and switching valves at 0.5° C. A separately temperature controlled chamber holds the pepsin column at 25° C. […] The resulting peptides were trapped and desalted on a VanGuard pre-column BEH C18 1.7 μm (2.1×5 mm (Waters Inc.)). Subsequently, the valves were switched to place the pre-column inline with the analytical column, UPLC-BEH C18 1.7 μm (1×100 mm (Waters Inc.)), and the peptides separated using a 9 min gradient of 10-50% B delivered at 40 μl/min from the nanoAQUITY UPLC system (Waters Inc.). The mobile phases consisted of A: 0.1% formic acid and B: 0.1% formic acid in CH₃CN. […]

[10] = target: T2, human Protein S (plasma derived); test: SPR (Biacore 3000), Protein S captured on phosphatidylserine vesicles on L1 chip, mAb 250 nM
[11] = target: T5, EGF domain 1 and 2 of recombinant human …; test: ELISA, calcium-free TBS
Experimental: as §1

Binder	binding result [2]	binding result [3]	binding result [4]	binding result [5]	binding result [6]	binding result [7]	binding result [8]	also measured
M-hProtS-3F2A1 monoclonal antibody (antibody, V domains shown, Mouse IgG1, kappa) VH: EVQLQESGPSLVKPSQTLSLTCSVTGDSITSGYWNWIRKFPGNKLEYMGYISFSGSTYYNPSLKSRISITRDTSKNQYYLQLNSVTTEDTATYYCAREFAYWGQGTLVTVSA VL: DIVLTQSPATLSVTPGDSVSLSCRASQSISNNLHWYQQKSHESPRLLIKFVSQSISGIPSRFSGSGSGTDFTLSINSVETEDFGMYFCQQSNSWPWTFGGGTKLEIKR				binds	binds	binds	no binding	
M-hProtS-2F82A1 monoclonal antibody (antibody, V domains shown, Mouse IgG1, kappa; also called mAb 0017) VH: QVQLQQPGTELVRPGASVKLSCKASGYTFTSYWMNWVQQRPEQGLEWIGRIDPYDTETHYNQKFEDKAILTVDKSSSTAYMQLSSLTSEDSAVYYCARWAGSSYAMDYWGQGTSVTVSS VL: QIVLTQSPALMSASPGERVTMTCSASSSVSYMYWYQQKPRSSPKPWIYSTSNLASGVPARFSGSGSGTSYSLTISSMEAEDAATYYCQQWSSNPYTFGGGTKLEIKR				binds	binds	binds	no binding	
0322-0000-0114 (antibody, V domains shown, also called murine-human chimeric antibody of 2F4A1) VH: EVKLEESGGGLVQPGGSMKLSCAASGFTFSDAWMDWVRQSPEKGLEWVAEIRSKANNHATYYAESVKGRFTISRDDSKSGVYLQMNSLRPEDTGIYYCTLTTAFLFDYWGQGTTLTVSS VL: QIALTQSPAIMSASPGEKVTMTCSVSSSVSYMHWYQQKPGSSPRLWIYDTSNLVSGVPGRFSGSGSGTSYSLTLSSMEAEDAATYYCQQYSGYLYTFGGGTKLEIKR								binding result [9]: binds; binding result [10]: binds
M-hProtS-2F4A1 monoclonal antibody (antibody, V domains shown, Mouse IgG1, kappa) VH: EVKLEESGGGLVQPGGSMKLSCAASGFTFSDAWMDWVRQSPEKGLEWVAEIRSKANNHATYYAESVKGRFTISRDDSKSGVYLQMNSLRPEDTGIYYCTLTTAFLFDYWGQGTTLTVSS VL: QIALTQSPAIMSASPGEKVTMTCSVSSSVSYMHWYQQKPGSSPRLWIYDTSNLVSGVPGRFSGSGSGTSYSLTLSSMEAEDAATYYCQQYSGYLYTFGGGTKLEIKR				binds	binds	binds	no binding	

Further lines, with some results ahead:

binding result [2]	binding result [3]	binding result [4]	binding result [5]	binding result [6]	binding result [7]	binding result [8]	Binder	also measured
binds	binds	binds					M-hProtS-6F138A3 monoclonal antibody (antibody, V domains shown, Mouse IgG1, kappa; also called 6F138A1/A3) VH: QVHLKESGPGLVAPSQNLSITCTVSGFSLTGYGVSWVRQPPGKGLEWLGMIWGDGTTDYNSTLKSRLSISKDNSKSQVFLKMNSLQIDDTARYYCARDPGAMDYWGQGTSVTVSS VL: QIVLTQSPAIMSASPGEKVTITCSATSSVTYMHWFQQKPGTSPKLWIFSTSNLASGVPPRFSGSGSGTSYSLTISRMEAEDAATYYCQQRSSYPPTFGGGTKLEIKR	binding result [1]: no binding
binds	binds	binds					M-hProtS-6F170A2 monoclonal antibody (antibody, V domains shown, Mouse IgG1, kappa) VH: not shown VL: QIVLTQSPAIMSASPGEKVTMTCSASSSVSYMYWYQQKPGSSPRILIYDTSNLASGVPVRFSGSGSGTSYSLTISRMEAEDAATYYCQQWSSYPLTFGAGTKLELKR	binding result [11]: no binding
